Measurements: PMC11871066 (2025)

Target: Negative control peptide 2014 (1907 with L145E and L152E) (UniProt P49023 141-153, S143 (i,i + 7 staple position), i,i + 7 all-hydrocarbon staple as in 1907)
Test: SPR

B1: Biotinylated AviTag FAK FAT protein (domain or fragment)
chain: MAAAYLDPNLNHTPNSSTKTHLGTGMERSPGAMERVLKVFHYFESNSEPTTWASIIRHGDATDVRGIIQKIVDSHKVKHVACYGFRLSHLRSEEVHWLHVDMGVSSVREKYELAHPPEEWKYELRIRYLPKGFLNQFTEDKPTLNFFYQQVKSDYMLEIADQVDQEIALKLGCLEIRRSYWEMRGNALEKKSNYEVLEKDVGLKRFFPKSLLDSVKAKTLRKLIQQTFRQFANLNREESILKFFEILSPVYRFDKECFKCALGSSWIISVELAIGPEEGISYLTDKGCNPTHLADFTQVQTIQYSNSEDKDRKGMLQLKIAGAPEPLTVTAPSLTIAENMADLIDGYCRLVNGTSQSFIIRPQKEGERALPSIPKLANSEKQGMRTHAVSVSETDDYAEIIDEEDTYTMPSTRDYEIQRERIELGRCIGEGQFGDVHQGIYMSPENPALAVAIKTCKNCTSDSVREKFLQEALTMRQFDHPHIVKLIGVITENPVWIIMELCTLGELRSFLQVRKYSLDLASLILYAYQLSTALAYLESKRFVHRDIAARNVLVSSNDCVKLGDFGLSRYMEDSTYYKASKGKLPIKWMAPESINFRRFTSASDVWMFGVCMWEILMHGVKPFQGVKNNDVIGRIENGERLPMPPNCPPTLYSLMTKCWAYDPSRRPRFTELKAQLSTILEEEKAQQEERMRMESRRQATVSWDSGGSDEAPPKPSRPGYPSPRSSEGFYPSPQHMVQTNHYQVSGYPGSHGITAMAGSIYPGQASLLDQTDSWNHRPQEIAMWQPNVEDSTVLDLRGIGQVLPTHLMEERLIRQQQEMEEDQRWLEKEERFLKPDVRLSRGSIDREDGSLQGPIGNQHIYQPVGKPDPAAPPKKPPRPGAPGHLGSLASLSSPADSYNEGVKLQPQEISPPPTANLDRSNDKVYENVTGLVKAVIEMSSKIQPAPPEEYVPMVKEVGLALRTLLATVDETIPLLPASTHREIEMAQKLLNSDLGELINKMKLAQQYVMTSLQQEYKKQMLTAAHALAVDAKNLLDVIDQARLKMLGQTRPH
modifications: biotin (biotinylated AviTag)
Binder B1 has a Kd greater than 200 µM.
